± gives the uncertainty stated by the source.

The data set can be described thus: amyloid nucleation score (Sup35N fusion, yeast selection) (log enrichment); library NNK1; higher = more nucleation; inactive = no reads after selection. The essentials:
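Growth for 7 days at 30°C on medium lacking adenine and uracil followed a 24-hour induction with 100 μM copper sulfate of psi-negative yeast expressing peptides of 20 random codons fused to Sup35N. Input and output plasmid inserts were sequenced with Illumina, and sequences with under 100 input reads were excluded. Nucleation score is the DiMSum log enrichment of output over input reads, centred on the mode score of non-aggregating sequences.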
KTWNVCALARGWECEAINVW: the amyloid nucleation score was -0.264 ± 0.3.
Turning to KVAVN, the amyloid nucleation score was determined as 0.453 ± 0.42.
In the case of KVCVLLSSCIYDNLHVR, the amyloid nucleation score was 0.402 ± 1.4.
Substance KVFGTRPVRYETCRFLRLRS had an amyloid nucleation score of -0.013 ± 0.34.
As to KVFINVYIKRQRNKCRRSNR, the amyloid nucleation score was 5.899 ± 0.054.
For KVKNRAFWPHMSLTYAMVPP the value was 0.333 ± 0.39; for KVLFLTCYTTPSLNNLVFRC, -0.069 ± 0.28; for KVLTRPG, -0.213 ± 0.64.
As to KVTMRWV, the amyloid nucleation score amounted to 2.21 ± 0.27.
For KVVTGLIYFWCIWCFGTLRV the value was 0.431 ± 0.9.
KWDLRPYFFLMVLEQGCSMW: the amyloid nucleation score is -0.506 ± 1.
KWEYCCLFMLAHVEDHLKGF showed an amyloid nucleation score of 0.59 ± 0.34.
The same measure for KWLPMKMKLWFDNSYGGQWF: -0.265 ± 1.2; for KWSSRCQWDWTLLGTCLAL: 0.29 ± 0.3; for KWSVSV: -0.32 ± 1.3.
With KWVKEALIA, the amyloid nucleation score was -0.463 ± 0.73.
The same measure for KWYNTPNSDWSV: -0.983 ± 1.7; for KYCVN: -0.403 ± 0.38.
KYENGCTDTWGMTVASPLIK showed an amyloid nucleation score of -0.515 ± 1.
The same measure for KYVCGLTDTVIRGMLKVIRA: 0.559 ± 0.27; for LACTYLCWALC: -1.32 ± 0.86.
On to LAEYHYGSMFSLNSTYYNLS, for which the amyloid nucleation score is 5.91 ± 0.069.
Turning to LAFMYVGKYARRGLTIYNLI, the amyloid nucleation score is -0.335 ± 0.54.
The same measure for LAITDKCSRALSLLSCPDF: 0.265 ± 0.63; for LALFIDWQ: 1.53 ± 0.53.
LAQSGIDIYLRKGMDARKMR showed an amyloid nucleation score of -0.516 ± 0.32.
The same measure for LARCRWLVKRVCDGNWCCML: 0.569 ± 0.48; for LAVFSNVLLYVEDMSALIRG: 0.129 ± 0.2; for LAYGWKFDNSCLL: 1.29 ± 0.68.
In the case of LAYVHTVKVDGPWKHMNVWY, the amyloid nucleation score stood at 1.22 ± 0.54.
The substance LCAARNFSL yielded an amyloid nucleation score of -0.277 ± 0.5.
LCCFKSFVSENMN showed an amyloid nucleation score of 6.447 ± 0.05.
LCFDVSFRYYGMGYIL: the amyloid nucleation score turned out to be 0.165 ± 0.23.
Take LCFGGRSWSCFVKVKHLFAC: the amyloid nucleation score is 1.68 ± 0.51.
The same measure for LCFSGD: -0.352 ± 0.99; for LCFVPGS: 3.73 ± 0.073.
Substance LCGDAPREDYSHGYVLNQVG showed an amyloid nucleation score of 0.352 ± 0.78.
LCGHF returned an amyloid nucleation score of 4.35 ± 0.051.
Substance LCITQKYRFSLHNLHQPTDW displayed an amyloid nucleation score of 1.93 ± 0.45.
In turn, LCLFGSWLKKLKYNRFLFVG gave an amyloid nucleation score of -1.18 ± 1.7.
For LCSHAIFCSSCGRFVLMEAC the value was “inactive”; for LCSIN, -0.876 ± 0.99; for LDAKVFRVALAYYLPPGP, 0.789 ± 0.53.
As to LDETIQSNRDTHLCQFA, the amyloid nucleation score was -0.29 ± 0.56.
In turn, LDFIKWAYNWCRLIVGIGGC returned an amyloid nucleation score of -0.476 ± 1.9.
For the substance LDGFSVNLCWFRHTERCVAC, the amyloid nucleation score was -0.224 ± 0.78.
The substance LDQKTFWLSVPVSWQIPADM yielded an amyloid nucleation score of 0.477 ± 0.61.
With LDRSTSSLIMSSCLMYRESS, the amyloid nucleation score came to 1.33 ± 0.29.
Turning to LDSARMGLFITGMV, the amyloid nucleation score was -1.06 ± 0.87.
Turning to LDTGVMMEIKICIHYRDCYD, the amyloid nucleation score is 1.84 ± 0.21.
For LDVCCEYPSKSSVMEWQVWL the value was 1.02 ± 0.54.
The substance LEASSIISSRTPG gave an amyloid nucleation score of -0.93 ± 2.4.
Regarding LEFRPRFSSISYHMIMFVGH, the amyloid nucleation score result was “inactive”.
In turn, LEGITELWRVMSYLMMTMVR yielded an amyloid nucleation score of -0.457 ± 1.1.
For the substance LEHYRVVLLG, the amyloid nucleation score is -0.535 ± 0.43.
Regarding LEILL, the amyloid nucleation score was determined as 0.145 ± 0.45.
With LEKINQVSGLDFRRIEFEPS, the amyloid nucleation score was -0.172 ± 1.2.
As to LELLMVKILSSLYDIMIFCC, the amyloid nucleation score entry was “inactive”.
For LEMDRICMMLSDSRFKLTLV the value was -0.025 ± 0.21; for LFAIKYCDVSD, 0.286 ± 0.43.
The same measure for LFETI: 0.746 ± 0.71; for LFFHL: 0.83 ± 0.79; for LFFLLLNHRAVVVLLWCHFT: -1.19 ± 0.91.
For LFGSEVTWYLTSGCDKPFLH, the amyloid nucleation score stood at 0.087 ± 0.48.
For LFIVPRRGARRYRVVITKSV the value was 0.003 ± 0.46.
As to LFIVTFSYFLSPRLVQWYAL, the amyloid nucleation score was found to be 0.516 ± 0.67.
For LFLECNDTLHRATTGVNLFK the value was 0.206 ± 1.6; for LFLHPMYMMKAASASGITVV, -0.1 ± 0.57.
The same measure for LFLIV: -0.08 ± 0.24; for LFNYPS: -0.948 ± 1.1.
For LFPIDSVNGTDWMTRMRDKI, the amyloid nucleation score result is “inactive”.
Substance LFREQW had an amyloid nucleation score of 0.228 ± 0.85.
Regarding LFRFCTIILLAYGLSLCNDI, the amyloid nucleation score entry is “inactive”.
The substance LFRWEGVATACSCGDDASFA had an amyloid nucleation score of -0.668 ± 1.1.
Take LFSCWQSGRVNKYYVDGSMG: the amyloid nucleation score is -0.206 ± 0.97.
Substance LFSYMYLEVDMSESMIRYL returned an amyloid nucleation score of 1.02 ± 0.31.
Turning to LFTCVQFIMGVDDRWKRARS, the amyloid nucleation score is 2.19 ± 0.26.
For LFTRIFSLSMYVPNCFRYAY the value was 1.02 ± 0.39.
As for LFYCRALRYFASHLDASNMH, the amyloid nucleation score is -1.09 ± 0.84.
On to LGCSFR, for which the amyloid nucleation score is -0.065 ± 1.4.
LGGFSMRVNEVVLPGVRFGD displayed an amyloid nucleation score of -0.037 ± 1.7.
On to LGHGHIDGQYKGYRVKWTYD, for which the amyloid nucleation score was -0.644 ± 0.35.
On to LGHIILSAFFYRSFNLEVSL, for which the amyloid nucleation score result was “inactive”.
For LGLGDGLLVRFNKFCGLMGR the value was -0.153 ± 1.2.
For LGLRFTCRLFGCIYTRASIM the value was -0.735 ± 1.7; for LGMIADYQKQKMMSSGTSLR, 0.289 ± 0.69.
With LGPNW, the amyloid nucleation score is -0.356 ± 0.53.
The same measure for LGPVLFKLLRETCAQSYKVM: -0.005 ± 0.67; for LGPYQTCR: 1.58 ± 0.72; for LGQEL: 0.416 ± 0.39.
The same measure for LGRKFT: 2.05 ± 0.41; for LGSDDLLKVSFFFVSLGS: -0.087 ± 1.2.
LGSGQGVNLSALPRFEYACR displayed an amyloid nucleation score of 0.527 ± 0.44.
Substance LGSMSPVGLTKYLGDGEEVV displayed an amyloid nucleation score of -0.036 ± 0.55.
Substance LGSWRFMLAVI had an amyloid nucleation score of 0.375 ± 0.48.
The same measure for LGTLMSPPTRTDFMHPRYRV: 1.51 ± 0.48; for LGYKSGVFLWGFRFHP: -1.35 ± 2.1.
For LHGLNF the value was 0.843 ± 0.74.
LHGPVFYKFACVVASPWGSI yielded an amyloid nucleation score of -0.235 ± 0.41.
For LHIAMTVYC the value was 2.42 ± 0.13.
LHLPYGCTASAICQFECSGW registered an amyloid nucleation score of 3 ± 0.15.
As for LHNERRSVISTPYRQSEAGL, the amyloid nucleation score came out at 0.707 ± 0.43.
Regarding LHSQKGILSLSSPI, the amyloid nucleation score is -0.223 ± 0.32.
In the case of LICPSLHPRAVGECSSVCWR, the amyloid nucleation score amounted to 0.157 ± 0.19.
On to LIENTGLHRENISRAPGGR, for which the amyloid nucleation score was -0.469 ± 0.83.
With LIHRA, the amyloid nucleation score is -0.041 ± 0.32.
For the substance LIIKEFITLLSPCWELLRIR, the amyloid nucleation score turned out to be 0.901 ± 0.9.
On to LIINGD, for which the amyloid nucleation score is 0.609 ± 1.2.
As to LIKGWSYPGVPCVGLLMDGK, the amyloid nucleation score stood at 0.27 ± 0.33.
LIKKKSNSIYMI had an amyloid nucleation score of -0.062 ± 0.3.
The same measure for LINMYSMDMTTDHAPAYKLD: -0.302 ± 0.47.
With LIQWENGTH, the amyloid nucleation score was -0.672 ± 0.34.
With LIRNKIRR, the amyloid nucleation score is -1.12 ± 0.93.
The same measure for LIWFVYMD: 0.347 ± 0.55.
Consider LIWSHVLDGYSCEKPSNRMC, for which the amyloid nucleation score was -0.662 ± 0.98.
As for LKARQHFRNHHGMLVQKRWD, the amyloid nucleation score result is “inactive”.
LKCFRLS registered an amyloid nucleation score of 0.327 ± 0.55.
The same measure for LKEDISPSELHTQLC: 0.81 ± 0.54; for LKHDRSNR: 0.345 ± 1.2.
LKNGSDSILDARVYLGG registered an amyloid nucleation score of -0.221 ± 0.51.
For LKRVCNS, the amyloid nucleation score stood at 0.002 ± 0.63.
LKTGGSPNLVANYMYDRCAG yielded an amyloid nucleation score of 0.581 ± 0.38.
The same measure for LKTRALASGWEAECADRGGV: -0.056 ± 0.64; for LKVRLNESIICYAMRVKHIC: 0.345 ± 0.36.
With LKYMYHYVSMKVFVLGISMR, the amyloid nucleation score amounted to 0.005 ± 1.7.
Substance LLAFYSVTFVSRWILQCYML yielded an amyloid nucleation score of -0.498 ± 0.36.
LLAGYCQSYIQLELSNSEHV came in with an amyloid nucleation score of -0.241 ± 0.84.
Substance LLDRRVGKLGLDCMLLDLCQ displayed an amyloid nucleation score of 0.752 ± 0.42.
With LLFSPIFLDSGPHTLWLYMF, the amyloid nucleation score came out at 0.491 ± 0.87.
Substance LLGASLNVKPESDFLLPAKR gave an amyloid nucleation score of 0.175 ± 0.41.
For the substance LLGIEFTSDLLPIPSISPNE, the amyloid nucleation score was 0.239 ± 0.63.
Substance LLKENWFNCSLWHDIVGISM registered an amyloid nucleation score of -0.596 ± 0.59.
In turn, LLKWLVDAW showed an amyloid nucleation score of 0.493 ± 0.25.
In turn, LLLNTLLWSL displayed an amyloid nucleation score of -1.83 ± 2.7.
Take LLLSILRWDEDMMLNFW: the amyloid nucleation score is 1.21 ± 0.43.
The same measure for LLLTHNLVNADDSVDSMQHK: 0.086 ± 0.24.
LLMVREDRRRFRSFGS registered an amyloid nucleation score of 0.773 ± 0.76.
Turning to LLNEDYTGHSCDPEGEDTR, the amyloid nucleation score amounted to 0.589 ± 0.52.
The substance LLNQFLTRSASYTRGTESID showed an amyloid nucleation score of 0.295 ± 0.24.
LLRLRISEIGSRLIKVWKSW had an amyloid nucleation score of 0.155 ± 0.35.
The same measure for LLRVAFLKRYFSTIFCVLLR: -0.716 ± 0.53.
On to LLSMLRCYWVSRLFV, for which the amyloid nucleation score was -0.079 ± 0.65.

The values above are taken from the supplement of paper PMC12042874.
